Where “and” joins values, the source holds several entries; their conditions need not be identical. Identical values can stand only once. Values belong to the molecule of their own block, whether it stands above or below them.
Assays:
[1] = biological target: human CLPB NBD-only variant (N-terminal ANK domain truncated) (human) (UniProt Q9H078); experiment: cryo-EM 2D classification; NBD^WT-AMPPNP dataset
[2] = biological target: human CLPB isoform 1 (human); experiment: negative staining electron microscopy + cryo-EM 2D classification; CLPB^isoform1-AMPPNP dataset, protein purified from E. coli
[3] = biological target: human CLPB NBD-only variant with E425Q (human) (UniProt Q9H078); experiment: cryo-EM structure; NBD^E425Q-ATP dataset; self-assembly into hexamer, heptamer and nonamer
[4] = biological target: the molecule itself; experiment: cryo-EM 2D classification; CLPB-ATPγS dataset, control without casein
[5] = biological target: the molecule itself; experiment: SEC + other: negative staining electron microscopy; proteins purified from E. coli; Superose 6 Increase 10/300 GL, 20 mM HEPES-KOH pH 6.8, 300 mM KCl, 5 mM MgCl2; with or without AMPPNP; peak fraction seen by nsEM
[6] = biological target: the molecule itself; experiment: cryo-EM structure; CLPB^E425Q-ATP dataset; sample treated with ATP and about 1 mM BS3, 0.5 mM CHAPSO added; self-assembly of the mutant
[7] = biological target: the molecule itself; experiment: SEC; purification of CLPB, CLPB^Δ201–232 and CLPB^isoform1 complexes by size-exclusion chromatography (S7C–S7E Fig)

stoichiometry N [1]: 6 and 7
Molecule: human CLPB NBD-only variant (N-terminal ANK domain truncated) (from UniProt Q9H078-2 1-677) (domain or fragment)

stoichiometry N [2]: 14
Molecule: human CLPB isoform 1 (enzyme)

stoichiometry N [3]: 6 and 7 and 9
Molecule: human CLPB NBD-only variant with E425Q (from UniProt Q9H078-2 1-677) (domain or fragment)

B1: human CLPB (isoform 2), construct CLPB-N127, wild type (enzyme, UniProt Q9H078-2 127-677, looked up)
chain: YSKSPSNKDAALLEAARANNMQEVSRLLSEGADVNAKHRLGWTALMVAAINRNNSVVQVLLAAGADPNLGDDFSSVYKTAKEQGIHSLEVLITREDDFNNRLNNRASFKGCTALHYAVLADDYRTVKELLDGGANPLQRNEMGHTPLDYAREGEVMKLLRTSEAKYQEKQRKREAEERRRFPLEQRLKEHIIGQESAIATVGAAIRRKENGWYDEEHPLVFLFLGSSGIGKTELAKQTAKYMHKDAKKGFIRLDMSEFQERHEVAKFIGSPPGYVGHEEGGQLTKKLKQCPNAVVLFDEVDKAHPDVLTIMLQLFDEGRLTDGKGKTIDCKDAIFIMTSNVASDEIAQHALQLRQEALEMSRNRIAENLGDVQISDKITISKNFKENVIRPILKAHFRRDEFLGRINEIVYFLPFCHSELIQLVNKELNFWAKRAKQRHNITLLWDREVADVLVDGYNVHYGARSIKHEVERRVVNQLAAAYEQDLLPGGCTLRITVEDSDKQLLKSPELPSPQAEKRLPKLRLEIIDKDSKTRRLDIRAPLHPEKVCNTI
notes: human CLPB, splicing isoform 2, starting from the PARL cleavage site (between C126 and Y127) to the C-terminus; Double-heptamer (tetradecamer) in the apo state; about 1 mM BS3 was added to the samples for cryo-EM; also called SKD3; WT CLPB; source: E. coli Transetta (DE3), purified (ammonium sulfate, Mono Q, TEV cleavage, Superose 6 SEC); not shown: His×6-SUMO, N-terminal, cleaved; copies: 14
stoichiometry N [4]: 14

B2: human CLPB (isoform 2) R227E (enzyme, UniProt Q9H078-2 127-677, looked up)
chain: YSKSPSNKDAALLEAARANNMQEVSRLLSEGADVNAKHRLGWTALMVAAINRNNSVVQVLLAAGADPNLGDDFSSVYKTAKEQGIHSLEVLITREDDFNNELNNRASFKGCTALHYAVLADDYRTVKELLDGGANPLQRNEMGHTPLDYAREGEVMKLLRTSEAKYQEKQRKREAEERRRFPLEQRLKEHIIGQESAIATVGAAIRRKENGWYDEEHPLVFLFLGSSGIGKTELAKQTAKYMHKDAKKGFIRLDMSEFQERHEVAKFIGSPPGYVGHEEGGQLTKKLKQCPNAVVLFDEVDKAHPDVLTIMLQLFDEGRLTDGKGKTIDCKDAIFIMTSNVASDEIAQHALQLRQEALEMSRNRIAENLGDVQISDKITISKNFKENVIRPILKAHFRRDEFLGRINEIVYFLPFCHSELIQLVNKELNFWAKRAKQRHNITLLWDREVADVLVDGYNVHYGARSIKHEVERRVVNQLAAAYEQDLLPGGCTLRITVEDSDKQLLKSPELPSPQAEKRLPKLRLEIIDKDSKTRRLDIRAPLHPEKVCNTI
notes: human CLPB isoform 2 (CLPB-N127) with R227E; also called CLPB^R227E; source: E. coli, purified; not shown: His×6-SUMO, N-terminal, cleaved
binding result [5]: binds

B3: human CLPB (isoform 2, CLPB-N127) Walker B mutant E425Q (enzyme, UniProt Q9H078-2 127-677, looked up)
chain: YSKSPSNKDAALLEAARANNMQEVSRLLSEGADVNAKHRLGWTALMVAAINRNNSVVQVLLAAGADPNLGDDFSSVYKTAKEQGIHSLEVLITREDDFNNRLNNRASFKGCTALHYAVLADDYRTVKELLDGGANPLQRNEMGHTPLDYAREGEVMKLLRTSEAKYQEKQRKREAEERRRFPLEQRLKEHIIGQESAIATVGAAIRRKENGWYDEEHPLVFLFLGSSGIGKTELAKQTAKYMHKDAKKGFIRLDMSEFQERHEVAKFIGSPPGYVGHEEGGQLTKKLKQCPNAVVLFDQVDKAHPDVLTIMLQLFDEGRLTDGKGKTIDCKDAIFIMTSNVASDEIAQHALQLRQEALEMSRNRIAENLGDVQISDKITISKNFKENVIRPILKAHFRRDEFLGRINEIVYFLPFCHSELIQLVNKELNFWAKRAKQRHNITLLWDREVADVLVDGYNVHYGARSIKHEVERRVVNQLAAAYEQDLLPGGCTLRITVEDSDKQLLKSPELPSPQAEKRLPKLRLEIIDKDSKTRRLDIRAPLHPEKVCNTI
notes: human CLPB isoform 2 from the PARL cleavage site (Y127) to the C-terminus, with E425Q; Double-hexamer (dodecamer) with a co-purified endogenous peptide in the central channel; also called CLPB^E425Q; source: E. coli, purified as the wild type; not shown: His×6-SUMO, N-terminal, cleaved; copies: 12
stoichiometry N [6]: 12

B4: human CLPB (isoform 2) R178E (enzyme, UniProt Q9H078-2 127-677, looked up)
chain: YSKSPSNKDAALLEAARANNMQEVSRLLSEGADVNAKHRLGWTALMVAAINENNSVVQVLLAAGADPNLGDDFSSVYKTAKEQGIHSLEVLITREDDFNNRLNNRASFKGCTALHYAVLADDYRTVKELLDGGANPLQRNEMGHTPLDYAREGEVMKLLRTSEAKYQEKQRKREAEERRRFPLEQRLKEHIIGQESAIATVGAAIRRKENGWYDEEHPLVFLFLGSSGIGKTELAKQTAKYMHKDAKKGFIRLDMSEFQERHEVAKFIGSPPGYVGHEEGGQLTKKLKQCPNAVVLFDEVDKAHPDVLTIMLQLFDEGRLTDGKGKTIDCKDAIFIMTSNVASDEIAQHALQLRQEALEMSRNRIAENLGDVQISDKITISKNFKENVIRPILKAHFRRDEFLGRINEIVYFLPFCHSELIQLVNKELNFWAKRAKQRHNITLLWDREVADVLVDGYNVHYGARSIKHEVERRVVNQLAAAYEQDLLPGGCTLRITVEDSDKQLLKSPELPSPQAEKRLPKLRLEIIDKDSKTRRLDIRAPLHPEKVCNTI
notes: human CLPB isoform 2 (CLPB-N127) with R178E; also called CLPB^R178E; source: E. coli, purified; not shown: His×6-SUMO, N-terminal, cleaved
binding result [5]: binds

B5: human CLPB (isoform 2) with the ANK insertion deleted (enzyme, UniProt Q9H078-2 127-677, looked up)
chain: YSKSPSNKDAALLEAARANNMQEVSRLLSEGADVNAKHRLGWTALMVAAINRNNSVVQVLLAAGADPNLGDDFSSFKGCTALHYAVLADDYRTVKELLDGGANPLQRNEMGHTPLDYAREGEVMKLLRTSEAKYQEKQRKREAEERRRFPLEQRLKEHIIGQESAIATVGAAIRRKENGWYDEEHPLVFLFLGSSGIGKTELAKQTAKYMHKDAKKGFIRLDMSEFQERHEVAKFIGSPPGYVGHEEGGQLTKKLKQCPNAVVLFDEVDKAHPDVLTIMLQLFDEGRLTDGKGKTIDCKDAIFIMTSNVASDEIAQHALQLRQEALEMSRNRIAENLGDVQISDKITISKNFKENVIRPILKAHFRRDEFLGRINEIVYFLPFCHSELIQLVNKELNFWAKRAKQRHNITLLWDREVADVLVDGYNVHYGARSIKHEVERRVVNQLAAAYEQDLLPGGCTLRITVEDSDKQLLKSPELPSPQAEKRLPKLRLEIIDKDSKTRRLDIRAPLHPEKVCNTI
notes: human CLPB isoform 2 (CLPB-N127) with the insertion between AM2 and AM3 completely deleted; source: E. coli, purified; not shown: His×6-SUMO, N-terminal, cleaved
binding result [7]: binds

— PMC9934407, “Comprehensive structural characterization of the human AAA+ disaggregase CLPB in the apo- and substrate-bound states reveals a unique mode of action driven by oligomerization” (PLOS Biology, 2023)
